We go through 1 substance from article doi:10.1101/629683.

For this experiment, the target named is mCh-vinT12-cBAK (constitutively active, opened form of full-length vinculin, mCherry-tagged, with cBAK) (gallus gallus) (UniProt P12003). Put plainly: Fluorescence Loss After Photoactivation.
Chain of UniProt P12003 (P12003 whole entry): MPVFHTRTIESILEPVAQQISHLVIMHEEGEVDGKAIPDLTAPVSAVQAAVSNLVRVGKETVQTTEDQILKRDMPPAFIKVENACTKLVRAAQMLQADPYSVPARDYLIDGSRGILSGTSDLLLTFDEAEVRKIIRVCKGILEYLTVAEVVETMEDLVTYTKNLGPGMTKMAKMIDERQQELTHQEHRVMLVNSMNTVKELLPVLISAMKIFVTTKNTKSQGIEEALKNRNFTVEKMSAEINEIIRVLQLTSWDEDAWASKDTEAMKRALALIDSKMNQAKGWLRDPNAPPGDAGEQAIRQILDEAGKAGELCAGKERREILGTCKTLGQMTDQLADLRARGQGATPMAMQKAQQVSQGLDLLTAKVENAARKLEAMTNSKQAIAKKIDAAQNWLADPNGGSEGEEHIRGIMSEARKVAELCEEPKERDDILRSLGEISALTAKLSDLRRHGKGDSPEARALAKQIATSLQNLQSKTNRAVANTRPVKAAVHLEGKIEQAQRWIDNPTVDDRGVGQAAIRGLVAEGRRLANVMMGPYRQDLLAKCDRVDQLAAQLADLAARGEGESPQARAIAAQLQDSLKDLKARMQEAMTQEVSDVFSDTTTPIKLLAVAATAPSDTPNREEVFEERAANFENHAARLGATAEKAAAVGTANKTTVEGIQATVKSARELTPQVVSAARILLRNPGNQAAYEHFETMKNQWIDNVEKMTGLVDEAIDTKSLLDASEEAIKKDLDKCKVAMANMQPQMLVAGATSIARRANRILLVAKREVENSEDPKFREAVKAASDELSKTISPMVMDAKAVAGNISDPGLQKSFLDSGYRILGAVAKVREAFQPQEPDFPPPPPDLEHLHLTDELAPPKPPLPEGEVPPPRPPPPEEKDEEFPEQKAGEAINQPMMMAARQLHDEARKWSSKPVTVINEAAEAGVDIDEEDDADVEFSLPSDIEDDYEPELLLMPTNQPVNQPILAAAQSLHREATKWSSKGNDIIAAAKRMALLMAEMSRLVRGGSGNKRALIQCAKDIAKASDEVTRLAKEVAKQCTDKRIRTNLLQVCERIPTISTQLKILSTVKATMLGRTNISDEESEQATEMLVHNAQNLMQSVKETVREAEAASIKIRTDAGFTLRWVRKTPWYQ

Substance “Photo-Activatable (PA) GFP-TalinFL (from UniProt P26039 1-2541) (natural protein)” showed a mobile fraction (Mf) in FLAP of under 20%.
